The supplement of paper PMC10567573

B1: KRT13 (parent)
chain: TPGIDLTRVLAEMREQYEAMAERN

Variants of: B1
Test: protein stability index of a GFP-peptide fusion (GPS, HEK-293T) (PSI 1-6); higher = more stable
Conditions: c terminus: a fixed tail appended
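Further: lentivirally expressed fusions sorted by FACS into six bins by GFP to DsRed ratio, PSI derived from sequencing read proportions per bin multiplied by bin number.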

Point of comparison: TPGIELTRVLAEMREQYEAMAERN, protein stability index 4.54. Against it:
- TPGIDGTRVLAEMREQYEAMAERN — higher, 4.98
- TPGIDVTRVLAEMREQYEAMAERN — lower, 3.88
- TPGIDTTRVLAEMREQYEAMAERN — higher, 5.4
- TPGIDFTRVLAEMREQYEAMAERN — lower, 3.98
- TPGIDDTRVLAEMREQYEAMAERN — lower, 3.84
- TPGIDRTRVLAEMREQYEAMAERN — higher, 4.84
- TPGIDYTRVLAEMREQYEAMAERN — lower, 3.37
- TPGIDATRVLAEMREQYEAMAERN — lower, 4.15
- TPGIDITRVLAEMREQYEAMAERN — lower, 4.13
- TPGIDNTRVLAEMREQYEAMAERN — higher, 5.14
- TPGIDSTRVLAEMREQYEAMAERN — higher, 5.29
- TPGIDHTRVLAEMREQYEAMAERN — lower, 3.99
- TPGIDCTRVLAEMREQYEAMAERN — higher, 4.79
- TPGIDQTRVLAEMREQYEAMAERN — higher, 5.01
- TPGIDWTRVLAEMREQYEAMAERN — lower, 3.09
- TPGIDETRVLAEMREQYEAMAERN — higher, 4.69
- TPGIDKTRVLAEMREQYEAMAERN — higher, 4.7
- TPGIDLTFVLAEMREQYEAMAERN — lower, 3.13
- TPGIDLTLVLAEMREQYEAMAERN — lower, 2.64
- TPGIDLTDVLAEMREQYEAMAERN — lower, 2.73
- TPGIDLTNVLAEMREQYEAMAERN — lower, 4.11
- TPGIDLTIVLAEMREQYEAMAERN — lower, 3.08
- TPGIDLTWVLAEMREQYEAMAERN — lower, 3.25
- TPGIDLTYVLAEMREQYEAMAERN — lower, 3.39
- TPGIDLTPVLAEMREQYEAMAERN — lower, 3.61
- TPGIDLTQVLAEMREQYEAMAERN — lower, 4.15
- TPGIDLTAVLAEMREQYEAMAERN — lower, 4.26
- TPGIDLTKVLAEMREQYEAMAERN — higher, 4.69
- TPGIDLTMVLAEMREQYEAMAERN — lower, 4.01
- TPGIDLTHVLAEMREQYEAMAERN — lower, 4.05
- TPGIDLTRVLAWMREQYEAMAERN — lower, 3.06
- TPGIDLTRVLATMREQYEAMAERN — lower, 4.09
- TPGIDLTRVLAKMREQYEAMAERN — lower, 2.23
- TPGIDLTRVLARMREQYEAMAERN — lower, 1.05
- TPGIDLTRVLACMREQYEAMAERN — lower, 2.66
- TPGIDLTRVLAAMREQYEAMAERN — lower, 3.15
- TPGIDLTRVLAPMREQYEAMAERN — lower, 4.36
- TPGIDLTRVLAFMREQYEAMAERN — lower, 3.42
- TPGIDLTRVLANMREQYEAMAERN — lower, 3.87
- TPGIDLTRVLAYMREQYEAMAERN — lower, 3.37
- TPGIDLTRVLAHMREQYEAMAERN — lower, 3.08
- TPGIDLTRVLAIMREQYEAMAERN — lower, 2.72
- TPGIDLTRVLAMMREQYEAMAERN — lower, 2.96
- TPGIDLTRVLAQMREQYEAMAERN — higher, 4.76
- TPGIDLTRVLFEMREQYEAMAERN — lower, 3.7
- TPGIDLTRVLIEMREQYEAMAERN — lower, 3.51
- TPGIDLTRVLYEMREQYEAMAERN — lower, 3.74
- TPGIDLTRVLNEMREQYEAMAERN — lower, 3.77
- TPGIDLTRVLSEMREQYEAMAERN — higher, 4.61
- TPGIDLTRVLPEMREQYEAMAERN — higher, 4.65
- TPGIDLTRVLHEMREQYEAMAERN — lower, 3.95
- TPGIDLTRVLVEMREQYEAMAERN — lower, 3.79
- TPGIDLTRVLTEMREQYEAMAERN — lower, 3.88
- TPGIDLTRVLKEMREQYEAMAERN — lower, 4.23
- TPGIDLTRVLDEMREQYEAMAERN — lower, 4.01
- TPGIDLTRVLLEMREQYEAMAERN — lower, 3.51
- TPGIDLTRVLMEMREQYEAMAERN — lower, 2.79
- TPGIDLTRVLQEMREQYEAMAERN — lower, 2.85
- TPGIDLIRVLAEMREQYEAMAERN — lower, 2.26
- TPGIDLFRVLAEMREQYEAMAERN — lower, 2.24
- TPGIDLNRVLAEMREQYEAMAERN — lower, 3.92
- TPGIDLDRVLAEMREQYEAMAERN — lower, 4.45
- TPGIDLRRVLAEMREQYEAMAERN — lower, 2.8
- TPGIDLSRVLAEMREQYEAMAERN — lower, 3.07
- TPGIDLHRVLAEMREQYEAMAERN — lower, 3.81
- TPGIDLLRVLAEMREQYEAMAERN — lower, 2.17
- TPGIDLVRVLAEMREQYEAMAERN — lower, 2.81
- TPGIDLWRVLAEMREQYEAMAERN — lower, 3.28
- TPGIDLARVLAEMREQYEAMAERN — lower, 3.77
- TPGIDLGRVLAEMREQYEAMAERN — lower, 3.36
- TPGIDLERVLAEMREQYEAMAERN — lower, 4.25
- TPGIDLPRVLAEMREQYEAMAERN — lower, 4.16
- TPGIDLKRVLAEMREQYEAMAERN — lower, 2.88
- TPGKDLTRVLAEMREQYEAMAERN — lower, 3.45
- TPGVDLTRVLAEMREQYEAMAERN — lower, 3.8
- TPGTDLTRVLAEMREQYEAMAERN — lower, 3.31
- TPGFDLTRVLAEMREQYEAMAERN — lower, 3.63
- TPGADLTRVLAEMREQYEAMAERN — lower, 3.97
- TPGCDLTRVLAEMREQYEAMAERN — higher, 4.87
- TPGPDLTRVLAEMREQYEAMAERN — lower, 4.39
- TPGRDLTRVLAEMREQYEAMAERN — lower, 4.14
- TPGHDLTRVLAEMREQYEAMAERN — higher, 4.85
- TPGSDLTRVLAEMREQYEAMAERN — lower, 4.48
- TPGYDLTRVLAEMREQYEAMAERN — lower, 3.75
- TPGNDLTRVLAEMREQYEAMAERN — lower, 2.62
- TPGQDLTRVLAEMREQYEAMAERN — lower, 3.72
- TPGIDLTRVSAEMREQYEAMAERN — higher, 4.87
- TPGIDLTRVWAEMREQYEAMAERN — lower, 4.09
- TPGIDLTRVFAEMREQYEAMAERN — higher, 4.55
- TPGIDLTRVMAEMREQYEAMAERN — lower, 4.48
- TPGIDLTRVQAEMREQYEAMAERN — higher, 5.15
- TPGIDLTRVYAEMREQYEAMAERN — lower, 4.4
- TPGIDLTRVKAEMREQYEAMAERN — lower, 4.14
- TPGIDLTRVTAEMREQYEAMAERN — higher, 5.01
- TPGIDLTRVVAEMREQYEAMAERN — higher, 4.8
- TPGIDLTRVCAEMREQYEAMAERN — lower, 4.22
- TPGIDLTRVPAEMREQYEAMAERN — higher, 5.31
- TPGIDLTRVDAEMREQYEAMAERN — higher, 5.17
- TPGIDLTRVNAEMREQYEAMAERN — higher, 5.71
- TPGIDLTRVRAEMREQYEAMAERN — lower, 4.12
- TPGIDLTRVGAEMREQYEAMAERN — higher, 5.23
- TPGIDLTRVIAEMREQYEAMAERN — lower, 3.25
- TPGIDLTRVHAEMREQYEAMAERN — higher, 4.95
- TPGIDLTRVEAEMREQYEAMAERN — higher, 5.2
- TPGIDLTRVLAEMRVQYEAMAERN — lower, 2.24
- TPGIDLTRVLAEMRDQYEAMAERN — lower, 4.24
- TPGIDLTRVLAEMRRQYEAMAERN — lower, 3.11
- TPGIDLTRVLAEMRQQYEAMAERN — lower, 3.28
- TPGIDLTRVLAEMRSQYEAMAERN — lower, 3.61
- TPGIDLTRVLAEMRIQYEAMAERN — lower, 2.85
- TPGIDLTRVLAEMRTQYEAMAERN — lower, 3.43
- TPGIDLTRVLAEMRYQYEAMAERN — lower, 2.42
- TPGIDLTRVLAEMRLQYEAMAERN — lower, 3.04
- TPGIDLTRVLAEMRGQYEAMAERN — lower, 3.82
- TPGIDLTRVLAEMRHQYEAMAERN — lower, 3.45
- TPGIDLTRVLAEMRAQYEAMAERN — lower, 3.47
- TPGIDLTRVLAEMRFQYEAMAERN — lower, 3.26
- TPGIDLTRVLAEMRKQYEAMAERN — lower, 3.83
- TPGIDLTRVLAEMRPQYEAMAERN — lower, 3.83
- TPGIDLTRVLAEMRWQYEAMAERN — lower, 2.07
- TPGIDLTRVLAEMRMQYEAMAERN — lower, 2.91
- TPGIDLTRVLAEMRCQYEAMAERN — lower, 3.34
- TPGISLTRVLAEMREQYEAMAERN — lower, 3.86
- TPGIVLTRVLAEMREQYEAMAERN — lower, 2.63
- TPGIKLTRVLAEMREQYEAMAERN — lower, 2.21
- TPGICLTRVLAEMREQYEAMAERN — lower, 2.73
- TPGIHLTRVLAEMREQYEAMAERN — lower, 4.29
- TPGIALTRVLAEMREQYEAMAERN — higher, 5.15
- TPGIWLTRVLAEMREQYEAMAERN — lower, 1.72
- TPGIILTRVLAEMREQYEAMAERN — lower, 2.66
- TPGITLTRVLAEMREQYEAMAERN — lower, 3.68
- TPGIGLTRVLAEMREQYEAMAERN — lower, 1.58
- TPGIFLTRVLAEMREQYEAMAERN — lower, 2.19
- TPGIMLTRVLAEMREQYEAMAERN — lower, 3.81
- TPGIPLTRVLAEMREQYEAMAERN — higher, 4.69
- TPGIQLTRVLAEMREQYEAMAERN — lower, 3.8
- TPGINLTRVLAEMREQYEAMAERN — lower, 3.88
- TPGIDLTRVLAEMTEQYEAMAERN — lower, 4.44
- TPGIDLTRVLAEMYEQYEAMAERN — lower, 3.61
- TPGIDLTRVLAEMCEQYEAMAERN — lower, 3.04
- TPGIDLTRVLAEMVEQYEAMAERN — lower, 3.14
- TPGIDLTRVLAEMFEQYEAMAERN — lower, 3.65
- TPGIDLTRVLAEMNEQYEAMAERN — higher, 4.55
- TPGIDLTRVLAEMEEQYEAMAERN — lower, 4.28
- TPGIDLTRVLAEMMEQYEAMAERN — lower, 3.69
- TPGIDLTRVLAEMQEQYEAMAERN — lower, 4.46
- TPGIDLTRVLAEMPEQYEAMAERN — lower, 4.42
- TPGIDLTRVLAEMWEQYEAMAERN — lower, 4.01
- TPGIDLTRVLAEMLEQYEAMAERN — lower, 2.42
- TPGIDLTRVLAEMKEQYEAMAERN — lower, 3.69
- TPGIDLTRVLAEMDEQYEAMAERN — higher, 5.07
- TPGIDLTRVLAEMHEQYEAMAERN — lower, 3.61
- TPGIDLTRVLAEMAEQYEAMAERN — lower, 2.08
- TPGIDLTRVLAEMSEQYEAMAERN — lower, 3.74
- TPGIDLTRVLAEHREQYEAMAERN — higher, 4.74
- TPGIDLTRVLAETREQYEAMAERN — lower, 4.53
- TPGIDLTRVLAEKREQYEAMAERN — lower, 4.24
- TPGIDLTRVLAESREQYEAMAERN — higher, 4.7
- TPGIDLTRVLAEIREQYEAMAERN — lower, 3.71
- TPGIDLTRVLAEGREQYEAMAERN — higher, 4.72
- TPGIDLTRVLAEQREQYEAMAERN — lower, 4.1
- TPGIDLTRVLAEVREQYEAMAERN — lower, 3.3
- TPGIDLTRVLAEDREQYEAMAERN — higher, 5.36
- TPGIDLTRVLAEPREQYEAMAERN — lower, 3.3
- TPGIDLTRVLAENREQYEAMAERN — higher, 5.48
- TPGIDLTRVLAEEREQYEAMAERN — higher, 5.33
- TPGIDLTRVLAEYREQYEAMAERN — lower, 4.11
- TPGIDLTRVLAECREQYEAMAERN — lower, 4.23
- TPGIDLTRVLAERREQYEAMAERN — higher, 4.93
- TPGIDLTRVLAEAREQYEAMAERN — higher, 4.67
- TPGIDLTRYLAEMREQYEAMAERN — lower, 3.01
- TPGIDLTRHLAEMREQYEAMAERN — lower, 4.47
- TPGIDLTRQLAEMREQYEAMAERN — lower, 4.41
- TPGIDLTRNLAEMREQYEAMAERN — higher, 4.86
- TPGIDLTRMLAEMREQYEAMAERN — lower, 3.94
- TPGIDLTRELAEMREQYEAMAERN — higher, 4.71
- TPGIDLTRRLAEMREQYEAMAERN — higher, 4.56
- TPGIDLTRDLAEMREQYEAMAERN — the same, 4.54
- TPGIDLTRLLAEMREQYEAMAERN — lower, 2.25
- TPGIDLTRPLAEMREQYEAMAERN — lower, 4.49
- TPGIDLTRSLAEMREQYEAMAERN — lower, 3.41
- TPGIDLTRTLAEMREQYEAMAERN — lower, 3.85
- TPGIDLTRILAEMREQYEAMAERN — lower, 3.06
- TPGIDLTRCLAEMREQYEAMAERN — lower, 4.47
- TPGIDLTRKLAEMREQYEAMAERN — lower, 4.34
- TPGIDLTRVLAEMREDYEAMAERN — higher, 4.61
- TPGIDLTRVLAEMRECYEAMAERN — higher, 4.57
